Results taken from article PMC6418199 (Scientific Reports, 2019).

B1: 32D6 human monoclonal antibody (antibody, V domains shown)
VH: QVQLQESGPGLVKPSETLSLTCTVSGGSVNTGSYYWSWIRQPPGKGLEWIAYSSVSGTSNYNPSLKSRVTLTVDTSKNQFSLSVRSVTAADTAVYFCARLNYDILTGYYFFDFWGQGTLVIVSS
VL: QVELTQSPSASASLGTSVKLTCTLSSGHSTYAIAWHQQRPGKGPRYLMNLSSGGRHTRGDGIPDRFSGSSSGADRYLIISSLQSEDEADYYCQTWDAGMVFGGGTKLTVL
B2: 32D6-Fab (Fab, V domains shown)
VH: B1 VH
VL: B1 VL
notes: also called Fab of 32D6; His-tagged Fab of 32D6 (with the CH1 domain); source: Expi293F cells, purified (HisTrap excel column)

Experiments:
[1] = biological target: hemagglutinin of H1N1 clinical isolate A/Taiwan/80813/2013 (genotype A/California/07/2009) (Influenza A virus A/Taiwan/80813/2013 …, UniProt C3W5X2, strain); experiment: cell-based or functional assay
[2] = biological target: hemagglutinin of H1N1 clinical isolate 2013-INF-153 (genotype A/California/07/2009) (Influenza A virus H1N1, clinical …, UniProt C3W5X2, strain); experiment: cell-based or functional assay
[3] = biological target: hemagglutinin of H1N1 clinical isolate 2014-INF-36 (genotype A/California/07/2009) (Influenza A virus H1N1, clinical …, UniProt C3W5X2, strain); experiment: cell-based or functional assay
[4] = biological target: hemagglutinin of H1N1 clinical isolate 2014-INF-37 (genotype A/California/07/2009) (Influenza A virus H1N1, clinical …, UniProt C3W5X2, strain); experiment: cell-based or functional assay
[5] = biological target: hemagglutinin of H1N1 clinical isolate 2013-INF-152 (genotype A/California/07/2009) (Influenza A virus H1N1, clinical …, UniProt C3W5X2, strain); experiment: cell-based or functional assay
[6] = biological target: HA1 domain (residues 63-290) of hemagglutinin from A/California/07/2009 (H1N1) (Influenza A virus …, UniProt C3W5X2); experiment: SPR; […], single-cycle kinetics, 25 °C; […]; 10 mM HEPES pH 7.4, 150 mM NaCl; conditions: both partners purified

Binder	Neutralization EC50 (infection of MDCK cells, high-content image system) [1]	Neutralization EC50 (infection of MDCK cells, high-content image system) [2]	Neutralization EC50 (infection of MDCK cells, high-content image system) [3]	Neutralization EC50 (infection of MDCK cells, high-content image system) [4]	Neutralization EC50 (infection of MDCK cells, high-content image system) [5]	Kd [6]	koff [6]	kon [6]
B1	0.036 µg/mL	0.005 µg/mL	0.011 µg/mL	0.012 µg/mL	0.014 µg/mL			
B2						0.353 nM	9.12e-05 s⁻¹	258000 M⁻¹ s⁻¹
